The results in this text go back to the Immune Epitope Database (IEDB).

What is called Kd is a measure of binding affinity in units of concentration.

In one experiment the target is HLA-B*53:01. The experiment is described as follows: IEDB peptide-MHC binding, purified MHC/competitive/radioactivity; filed as Kd, often an IC50 or EC50 that approximates it; ≥ and ≤ were set here for values at or beyond the usual limits of such assays. The following applies: source organism: Dengue virus 1 Brazil/97-11/1997.
Experiment [1] has as its target HLA-B*51:01. Description: IEDB peptide-MHC binding, purified MHC/direct/fluorescence; filed as Kd, often an IC50 or EC50 that approximates it; ≥ and ≤ were set here for values at or beyond the usual limits of such assays. The following applies: source organism: Dengue virus.
The target in the next experiment is HLA-A*30:01. Described as above.
The target of experiment [2] is HLA-A*03:01. The experiment is described as above.
For experiment [3], the target named is HLA-B*15:01. The description is as above.
For experiment [4], the target named is HLA-A*02:01. The description is as above.
In another experiment the target is HLA-B*44:02. The description is as above.
Another experiment deals with HLA-A*01:01. The experiment is described as above.
The next experiment deals with HLA-B*58:01. The description is as above.
The target in another experiment is HLA-B*07:02. Described as above.
Experiment [5] concerns the target HLA-A*26:01. Described as above.
Another experiment deals with HLA-B*08:01. The description is as above.
A further experiment has as its target HLA-A*24:03. The description is as above.
The next experiment has as its target HLA-A*31:01. Described as above.
The target of a further experiment is HLA-B*27:05. Described as above.
For a further experiment, the target named is HLA-A*11:01. The description is as above.
The target of the next experiment is HLA-B*40:01. The description is as above.
For experiment [6], the target named is HLA-A*69:01. Described as above.
In the next experiment the target is HLA-B*46:01. Description: IEDB peptide-MHC binding, purified MHC/competitive/fluorescence; filed as Kd, often an IC50 or EC50 that approximates it; ≥ and ≤ were set here for values at or beyond the usual limits of such assays. As to conditions: source organism: Homo sapiens.
The target of another experiment is HLA-B*15:17. The experiment is described as above. The following applies: source organism: Homo sapiens.
Experiment [7] concerns the target HLA-B*51:01. Described as above. As to conditions: source organism: Homo sapiens.
Experiment [8] concerns the target HLA-A*03:01. The experiment is described as above. The following applies: source organism: Homo sapiens.
In experiment [9] the target is HLA-B*15:01. The description is as above. As to conditions: source organism: Homo sapiens.
For a further experiment, the target named is HLA-A*02:19. The experiment is described as above. The following applies: source organism: Homo sapiens.
Experiment [10] addresses HLA-A*02:01. The description is as above. The following applies: source organism: Homo sapiens.
In another experiment the target is HLA-B*27:03. The description is as above. As to conditions: source organism: Homo sapiens.
Experiment [11] concerns the target HLA-A*26:01. Described as above. The following applies: source organism: Homo sapiens.
The next experiment has as its target HLA-B*39:01. The experiment is described as above. As to conditions: source organism: Homo sapiens.
Another experiment deals with HLA-B*57:01. The experiment is described as above. The following applies: source organism: Homo sapiens.
A further experiment deals with HLA-B*18:01. The experiment is described as above. The following applies: source organism: Homo sapiens.
The target in the next experiment is HLA-A*02:12. Described as above. As to conditions: source organism: Homo sapiens.
The next experiment deals with HLA-A*68:02. The description is as above. As to conditions: source organism: Homo sapiens.
In experiment [12] the target is HLA-A*69:01. Described as above. As to conditions: source organism: Homo sapiens.
A further experiment concerns the target HLA-B*35:01. The experiment is described as follows: IEDB peptide-MHC binding, purified MHC/direct/fluorescence; filed as Kd, often an IC50 or EC50 that approximates it; ≥ and ≤ were set here for values at or beyond the usual limits of such assays. As to conditions: source organism: Escherichia coli O6.
Where [13] appears, read: source organism: Vibrio cholerae.
Where [14] appears, read: source organism: Escherichia coli O6.
Where [15] appears, read: source organism: Shigella flexneri.
[16] abbreviates: source organism: Haemophilus influenzae.
Setting [17] is: source organism: Corynebacterium glutamicum.
Where [18] appears, read: source organism: Corynebacterium efficiens.
Setting [19] is: source organism: Pseudomonas aeruginosa.

Regarding CPTQGEATL, the equilibrium dissociation constant (Kd) with HLA-B*53:01 is 0.0199 µM; with HLA-B*51:01 [1], at least 20 µM.
RPRIRLSAP: the equilibrium dissociation constant (Kd) with HLA-A*30:01 (setting [13]) is 3.77 µM; with HLA-A*03:01 [2] (setting [13]) it was at least 20 µM; with HLA-B*15:01 [3] (setting [13]) it was at least 20 µM; with HLA-A*02:01 [4] (setting [13]), at least 20 µM; with HLA-B*44:02 (setting [13]), at least 20 µM; with HLA-A*01:01 (setting [13]), at least 20 µM. Further, the dissociation constant (Kd) with HLA-B*58:01 (setting [13]) was at least 20 µM; with HLA-B*07:02 (setting [13]) it was 0.0278 µM; in the experiment with HLA-A*26:01 [5] (setting [13]), at least 20 µM; with HLA-B*08:01 (setting [13]), 1.89 µM; with HLA-A*24:03 (setting [13]), at least 20 µM; with HLA-A*31:01 (setting [13]), at least 20 µM. In addition, the dissociation constant Kd in the experiment with HLA-B*27:05 (setting [13]), with HLA-A*11:01 (setting [13]), in the experiment with HLA-B*40:01 (setting [13]) and in the experiment with HLA-A*69:01 [6] (setting [13]) was at least 20 µM in each case.
As to SLFNWLWYE, the dissociation constant Kd in the experiment with HLA-B*46:01, with HLA-B*15:17, with HLA-B*51:01 [7], with HLA-A*03:01 [8], with HLA-B*15:01 [9] and in the experiment with HLA-A*02:19 was at least 20 µM each time. Besides, the Kd was 0.196 µM with HLA-A*02:01 [10]; at least 20 µM in the experiment with HLA-B*27:03; at least 20 µM with HLA-A*26:01 [11]; at least 20 µM with HLA-B*39:01; at least 20 µM with HLA-B*57:01; at least 20 µM with HLA-B*18:01. The Kd with HLA-A*02:12, in the experiment with HLA-A*68:02 and with HLA-A*69:01 [12] was at least 20 µM in each case.
For KTTLFHTFK, the Kd with HLA-A*30:01 (setting [14]) was 0.00609 µM; in the experiment with HLA-A*03:01 [2] (setting [14]), 0.122 µM; with HLA-B*15:01 [3] (setting [15]), at least 20 µM; with HLA-A*02:01 [4] (setting [15]), at least 20 µM; with HLA-B*44:02 (setting [15]), at least 20 µM; with HLA-A*01:01 (setting [15]) it was at least 20 µM. The Kd with HLA-B*58:01 (setting [14]) is 9.38 µM; with HLA-B*07:02 (setting [15]), at least 20 µM; with HLA-A*26:01 [5] (setting [15]), at least 20 µM; with HLA-B*08:01 (setting [15]) it was at least 20 µM; with HLA-A*24:03 (setting [15]), at least 20 µM; with HLA-A*31:01 (setting [14]), 0.0304 µM. Besides, the dissociation constant (Kd) with HLA-B*27:05 (setting [15]) was at least 20 µM; with HLA-A*11:01 (setting [14]), 0.0162 µM; with HLA-B*40:01 (setting [15]) it was at least 20 µM; in the experiment with HLA-A*69:01 [6] (setting [15]), at least 20 µM.
On to TPVWHVTSA, for which the Kd in the experiment with HLA-A*03:01 [2] (setting [14]) is at least 20 µM; with HLA-B*15:01 [3] (setting [14]), at least 20 µM; in the experiment with HLA-B*35:01, 0.0209 µM; with HLA-A*02:01 [4] (setting [14]) it was at least 20 µM; with HLA-A*01:01 (setting [14]), at least 20 µM; with HLA-B*58:01 (setting [14]) it was at least 20 µM. Also, the Kd is 0.0181 µM in the experiment with HLA-B*07:02 (setting [14]); at least 20 µM with HLA-A*26:01 [5] (setting [14]); at least 20 µM with HLA-B*08:01 (setting [14]); at least 20 µM with HLA-A*24:03 (setting [14]); at least 20 µM with HLA-A*31:01 (setting [14]); at least 20 µM in the experiment with HLA-B*27:05 (setting [14]). For the same sequence, the Kd with HLA-A*11:01 (setting [14]), in the experiment with HLA-B*40:01 (setting [14]) and in the experiment with HLA-A*69:01 [6] (setting [14]) was at least 20 µM in each case.
For the sequence MTMRRRLFK, the dissociation constant (Kd) was 0.00063 µM with HLA-A*30:01 (setting [16]); 0.0531 µM with HLA-A*03:01 [2] (setting [16]); at least 20 µM with HLA-B*15:01 [3] (setting [16]); at least 20 µM in the experiment with HLA-A*02:01 [4] (setting [16]); 14.5 µM with HLA-A*01:01 (setting [16]); at least 20 µM in the experiment with HLA-B*07:02 (setting [16]). Also, the equilibrium dissociation constant (Kd) is at least 20 µM with HLA-A*26:01 [5] (setting [16]); 5.63 µM with HLA-B*08:01 (setting [16]); at least 20 µM with HLA-A*24:03 (setting [16]); 0.0202 µM with HLA-A*31:01 (setting [16]); at least 20 µM with HLA-B*27:05 (setting [16]); 0.0142 µM with HLA-A*11:01 (setting [16]). Besides, the dissociation constant Kd in the experiment with HLA-B*40:01 (setting [16]) and with HLA-A*69:01 [6] (setting [16]) was at least 20 µM throughout.
Take KLGDQFGRK: the dissociation constant (Kd) in the experiment with HLA-A*30:01 (setting [17]) was 1.49 µM; with HLA-A*03:01 [2] (setting [17]) it was 0.242 µM; in the experiment with HLA-B*15:01 [3] (setting [18]), at least 20 µM; with HLA-A*02:01 [4] (setting [18]), at least 20 µM; with HLA-A*01:01 (setting [18]) it was at least 20 µM; with HLA-B*58:01 (setting [18]) it was at least 20 µM. Moreover, the dissociation constant (Kd) was at least 20 µM in the experiment with HLA-B*07:02 (setting [18]); at least 20 µM with HLA-A*26:01 [5] (setting [18]); at least 20 µM with HLA-B*08:01 (setting [18]); at least 20 µM with HLA-A*24:03 (setting [18]); 4.37 µM with HLA-A*31:01 (setting [17]); at least 20 µM with HLA-B*27:05 (setting [18]). Further, the values for the Kd with HLA-A*11:01 (setting [17]), with HLA-B*40:01 (setting [18]) and with HLA-A*69:01 [6] (setting [18]) were 0.07 µM, at least 20 µM and at least 20 µM, respectively.
Consider RSFAERLDR, for which the Kd with HLA-A*30:01 (setting [19]) was 0.344 µM; with HLA-A*03:01 [2] (setting [19]), 0.286 µM; with HLA-B*15:01 [3] (setting [19]) it was at least 20 µM; with HLA-A*02:01 [4] (setting [19]) it was at least 20 µM; in the experiment with HLA-A*01:01 (setting [19]), at least 20 µM; with HLA-B*58:01 (setting [19]) it was at least 20 µM. Also, the Kd was at least 20 µM with HLA-B*07:02 (setting [19]); at least 20 µM with HLA-A*26:01 [5] (setting [19]); at least 20 µM with HLA-B*08:01 (setting [19]); at least 20 µM with HLA-A*24:03 (setting [19]); 0.0287 µM with HLA-A*31:01 (setting [19]); 3.46 µM in the experiment with HLA-B*27:05 (setting [19]). The Kd is 0.117 µM with HLA-A*11:01 (setting [19]), at least 20 µM in the experiment with HLA-B*40:01 (setting [19]) and at least 20 µM with HLA-A*69:01 [6] (setting [19]).
